According to the RNAGym collection of RNA variant scans (doi:10.1073/pnas.2313332121):

B1: TPR t1 (parent)
chain: GACCAAUCUGCCCUCAGAGCUCGAGAACAUCUUCGGAUGCAGAGGAGGCAGGCUUCGGUGGCGCGAUAGCGCCAACGUCCUCAACCUCCAAUGCAUCCCACCACAUGAUGAUGCCUGAAGAGCCUUGGUUUUUUG

Variants of: B1
Assay: polymerase ribozyme fitness, log enrichment relative to wild type (log ratio); higher = more active; in vitro selection for triplet polymerase activity
In short: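 To select mutant libraries of each subunit of a heterodimeric triplet polymerase ribozyme, built by PCR and transcribed, each was annealed with a biotinylated primer, partner subunit and triplets, then incubated frozen at −7 °C. Extended constructs were gel-excised, captured on streptavidin beads and amplified by RT-PCR, in one round carried out in triplicate. Illumina sequencing of input and output libraries kept genotypes with ≥10 input reads and ≥1 read per output. Fitness is the base-2 logarithm of genotype enrichment relative to wild-type enrichment, from inverse-variance-weighted replicate averages.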

Row | Variant | polymerase ribozyme fitness (log ratio)
1 | C15U A43C G69A | -4.44
2 | U14G G61A | -1.48
3 | C15A A46U G77U | -2.81
4 | C15G C73A C82G G117U U130C | -0.6
5 | C15G G61A | -1.86
6 | C15G C22U | -5.53
7 | C15U C73U G77A C98A | -8.01
8 | C15A U106G | -3.3
9 | C15U C64A C79A C98A G117U | -6.93
10 | C15A G69C C94U U126A | -5.2
11 | C15G A43U | -3.43
12 | C15U G47A G69C C85A A119U C124U | -3.68
13 | C15A G113A | -3.63
14 | C15G A37U G48U G77U G122A | -4.17
15 | C15A A91G C123A | -2.45
16 | C15U C62A | -2.1
17 | C15U C62U | -1.95
18 | C15A G57U | -2.02
19 | C15A G57C | -1.91
20 | C15U C97G A121C | -4.09
21 | C15G G44U | -3.71
22 | C15A A27C | -4.33
23 | C15G A74U C88A C101U | -4.74
24 | C15A G69U | -1.16

Row | Variant | polymerase ribozyme fitness (log ratio)
25 | C15U A41C G45A G71C U112A G117A G127C | -4.04
26 | C15G U78G C115U U126A | -2.34
27 | C15A G47U C73A C115A A121C U133C | -5.41
28 | U14G C76A | -2.76
29 | C15U A90U | -2.96
30 | C15U A18U G44U G69U | -5.2
31 | U14G G69U C85A | -2.32
32 | C15A C28G | -4.4
33 | C15G A119G | 0.41
34 | C15G A95U U116G | -2.63
35 | C15G A43U A84U | -5.64
36 | C15A C94U G120C | -0.704
37 | C15A A46C G52C A91U U129G | -6.42
38 | C15A C82U C89A U96A C104U | -3.39
39 | C15G A29C G71C C86U G113U G120U U129A | -6.08
40 | C15A | -1.85
41 | C15U | -1.37
42 | C15G | -2.16
43 | C15A G36U A121G | 0.928
44 | C15A C80U | -1.68
45 | C15U A84U U87A A105G G113U | -5.89
46 | C15A G39A G61A C123U | -0.349
47 | C15G A95C A119U | -3.82
48 | C15A G47U C80U C86A | -3.28

Row | Variant | polymerase ribozyme fitness (log ratio)
49 | C15U C72A | -1.07
50 | C15U G39C G69U C94U C115U C123A G135U | -1.89
51 | C15G A74U G117U | -0.0169
52 | C15G G48C C85U G122A | -3.3
53 | C15U G44C A50C G61U U96C C104U | -2.29
54 | C15U A43G G57U C85A G93U G120C | -4.37
55 | C15G G45C C102A G113U G122A | -5.64
56 | C15U G39A C98U | -3.87
57 | C15U G42C A74U | -3.74
58 | C15A G71C C97G G117U | -5.07
59 | C15U C64U G117U G120A | -1.73
60 | C15U G35A A66U U109A U116A | -5.44
61 | C15A C88A | -1.56
62 | C15A C88G | -2.59
63 | C15U A74C A75G C115A | -3.69
64 | C15A G63U | -3.03
65 | C15U C62G C82A | -2.4
66 | C15A C53U A66U | -4.71
67 | C15G G47A C70G G117C | -3.82
68 | C15A U126A | -4.9
69 | C15A A27C U55A | -5.44
70 | C15A C49U A90U A108G C114G | -6.22
71 | C15U G17U A91G C98U A111C | -6.3
72 | C15U A50U G71A C89U | -5.22

Row | Variant | polymerase ribozyme fitness (log ratio)
73 | C15A C20U G58A U87G A90C C114G | -4.17
74 | C15A C62G U92C A121U | -4.25
75 | C15U A111U A118C | -5.19
76 | C15U A111C U130A | -1.29
77 | C15U C40U C114A | -4.3
78 | C15G G57A U132C | -3.99
79 | C15U A37C C53A | -1.72
80 | C15A A111U | -5.13
81 | C15U G45C G117A | -1.11
82 | C15A A24U C70U G77C G110C | -6.25
83 | C15A G69A C104U | -4.06
84 | C15G G17U C86A | -5.4
85 | C15A A18U C53A U112C G127A | -5.64
86 | C15A A27G G39A G44A G69U G71U C82U C88U C102U | -6.86
87 | C15A U59A C101A | -3.37
88 | C15A C86A U129A | -4.12
89 | C15A G39C A41U C101U | -3.77
90 | C15A G47U C123U | -2.56
91 | U14G C72A U106G | -3.74
92 | U14G G35A A46G U96A C114U | -5.86
93 | C15U G39U G42A A84U | -4.16
94 | C15G G25U C34G G60C U109G | -6.48
95 | C15U C53U C97U | -1.96
96 | C15G G71A A90G | -3.09

Row | Variant | polymerase ribozyme fitness (log ratio)
97 | C15G C73G C88U U116G | -3.52
98 | C15G C53G C56G G61A | -3.41
99 | C15G C20U C62A G117U | -3.55
100 | C15A G36U G42A C49G G60U | -6.51
101 | C15A U92C G110C C115U G127U | -6
102 | C15U A46U U54G C123A | -1.74
103 | C15U G39C C94U C115U C123A G135U | -5.48
104 | C15U C34A C123U | -3.01
105 | C15A G63U A68G A111G | -7.51
106 | C15G C53G G60A | -3.25
107 | C15A G48C G52C | -4.44
108 | C15G U32C G36C C49G G120C | -3.15
109 | C15U G44A C56A C62A G71C U131A | -3.4
110 | C15A C20G G71U A91C C98G C123U U133G | -4.96
111 | C15U A43U A84C | -2.66
112 | C15G C70G U132C | -6.73
113 | C15U A43U G48A A100C A111G | -5.15
114 | C15G A16U G61U G122U C123U | -2.55
115 | C15A G42U C85U G120C | -1.73
116 | C15A G69U C101A C123U G127A | -4.17
117 | C15G U78G | -2.92
118 | C15U C73A U78A C86G | -2.43
119 | U14G C72U G135U | -2.55
120 | C15G U109A G120U C123A | -6.64

Row | Variant | polymerase ribozyme fitness (log ratio)
121 | C15U G23C A27U G45C G113C | -6.21
122 | C15U C53U G61U C97U | -2.21
123 | C15U A84C | -1.68
124 | U14G C56U C70A A83C C104G G110A U116A | -5.43
125 | C15U G36A G69U C72U | -1.55
126 | C15G C62U A90G U126A | -3.64
127 | C15G C56U | -2.17
128 | C15U A18U C31A G39U U54A C70U C114U C115G | -5.12
129 | C15A A29U | -4.28
130 | U14G U96A G110A | -3.75
131 | C15G C104U U132A | -1.67
132 | C15A A118G | -2.6
133 | U14G G42C A46C C53U | -4.19
134 | C15A U55G G71A C88A | -2.35
135 | C15U C49U U55G C73U | -1.56
136 | C15U A46G A84U U112A G113U G120U | -4.78
137 | C15A A37U C76G | -2.94
138 | C15A A37U C76U | -2.8
139 | C15G U32C G36C C49G U59C G120C | -4.02
140 | C15A G39A U87G U112G | -2.16
141 | C15G C40U G61A C89U A91C C123G | -0.621
142 | C15U C22U C72U G120C | -3.96
143 | C15A G42A C53A C101U | -4.53
144 | C15A A18U C98U G107C G113U U125G | -6.57

Row | Variant | polymerase ribozyme fitness (log ratio)
145 | C15U C72U U78A C85G C98A C104G C123U G128C | -6.7
146 | C15U A43C C76U | -3.95
147 | C15G G63U U96A C99U G117U | -5.62
148 | C15U C56A C72A C79G | -2.96
149 | C15A A37U G57A G61C | -3.97
150 | C15U C20U G42A A43C G113A | -1.99
151 | C15U C64G A90C C114U G128A | -6.98
152 | C15U G19U C124G | -2.54
153 | C15A A46U C76U C101U C115U | -4.21
154 | C15U C20A G42A C124A U130C | -2.95
155 | C15U C20G G51A C98G U109A | -2.04
156 | U14G G61U C86G C115G | -5.92
157 | C15U A50U C73U A118U G127A | -5.35
158 | C15U A29U | -3.13
159 | C15A C28U G61C | -5.32
160 | C15A C53U | -1.61
161 | C15G G45C C53U A91U | -5.56
162 | C15U C49A U92C U106A | -3.27
163 | C15A C49A U55G A74C U81G A90G G117U | -3.52
164 | C15G G17A | -3.99
165 | C15U C72G A100U U130A | -2.29
166 | C15G C82G G117U U130C | -0.86
167 | C15A G39C C114G | -4.44
